In paper doi:10.1101/835280, “Bayesian Modeling Reveals Ultrasensitivity Underlying Metabolic Compensation in the Cyanobacterial Circadian Clock” (bioRxiv, 2019):

B1: C-terminal domain of KaiA (residues 181-284) (domain or fragment, Synechococcus elongatus PCC 7942, UniProt Q79PF6 181-284, looked up)
chain: NLPAYESQKLHQAMQTSYREIVLSYFSPNSNLNQSIDNFVNMAFFADVPVTKVVEIHMELMDEFAKKLRVEGRSEDILLDYRLTLIDVIAHLCEMYRRSIPRET
notes: KaiA, Synechococcus elongatus PCC 7942, C-terminal domain, residues 181-284; U-[15N] labelled, grown in deuterated water; also called C-terminal KaiA; C-terminal fragment of KaiA; source: E. coli BL21(DE3), M9 medium with 15N-NH4Cl in 98% D2O, purified (Ni-NTA, SEC on Superdex 75)
B2: KaiB-FLAG (natural protein, Synechococcus elongatus PCC 7942, UniProt Q79PF5 1-102, looked up)
chain: MSPRKTYILKLYVAGNTPNSVRALKTLKNILEVEFQGVYALKVIDVLKNPQLAEEDKILATPTLAKVLPLPVRRIIGDLSDREKVLIGLDLLYGELQDSDDF
notes: KaiB, circadian clock protein of Synechococcus elongatus PCC 7942; also called FLAG-tagged KaiB; source: expressed and purified as previously described (Phong et al., 2013), anion exchange on HiTrap Q

Key:
[1] = molecular target: the molecule itself; test: SEC; size-exclusion chromatography on a Superdex 75 16/60 prep grade column, last step of the purification of the 15N-labelled KaiA domains
[2] = molecular target: T1, KaiA (Synechococcus elongatus PCC 7942, UniProt Q79PF6 1-284); test: co-IP; immunoprecipitation of KaiB-FLAG from an in vitro clock reaction of purified KaiA, KaiB-FLAG and KaiC (20 mM Tris-HCl pH 8, 150 mM NaCl, 5 mM MgCl2, 0.5 mM EDTA, 10% glycerol), time course; KaiA left in the supernatant read by SDS-PAGE (SYPRO Ruby) against 1.5 uM GFP as internal standard; settings: both partners purified
T1 construct: KaiA, circadian clock protein of Synechococcus elongatus PCC 7942; source: expressed and purified as previously described (Phong et al., 2013), anion exchange on HiTrap Q
T1 sequence (looked up): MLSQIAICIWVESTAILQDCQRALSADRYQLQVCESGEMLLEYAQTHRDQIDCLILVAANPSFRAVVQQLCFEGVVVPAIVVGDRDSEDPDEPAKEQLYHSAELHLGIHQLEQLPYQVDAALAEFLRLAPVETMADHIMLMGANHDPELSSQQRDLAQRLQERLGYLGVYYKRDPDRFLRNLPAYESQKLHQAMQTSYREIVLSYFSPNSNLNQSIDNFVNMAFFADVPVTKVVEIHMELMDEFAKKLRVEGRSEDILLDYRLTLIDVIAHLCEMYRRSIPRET

| Binder | stoichiometry N [1] | binding result [2] |
| --- | --- | --- |
| B1 | 2 |  |
| B2 |  | binds |
